From paper PMC7755911 come the findings set out here.

This assay addresses Biotinylated SARS-CoV-2 S protein RBD with a C-terminal AviTag (SARS-CoV-2) (UniProt P0DTC2). Nature of the assay: BLI. In general terms: In BLI a coated tip is dipped into the sample, and binding shifts an interference pattern.

Sequence of NIH-CoVnb-112 (VHH) (VHH): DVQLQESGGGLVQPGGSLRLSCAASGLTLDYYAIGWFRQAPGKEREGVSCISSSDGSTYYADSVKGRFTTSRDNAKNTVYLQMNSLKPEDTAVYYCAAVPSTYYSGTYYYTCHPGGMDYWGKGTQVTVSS

Usually Kd stands for the equilibrium constant for the complex coming apart. Usually koff stands for the first-order rate constant of dissociation. Read a high koff as a short-lived complex. What is called kon is the second-order rate constant of association. A high value points to faster complex formation. NIH-CoVnb-112 (VHH): the Kd is 4.9 nM, the koff was 0.000654 s⁻¹ and the kon came out at 130000 M⁻¹ s⁻¹.
